Source: US20200057047

System: HA-tagged AhR

Chain of Myc-tagged PKCθ (Q04759 whole entry): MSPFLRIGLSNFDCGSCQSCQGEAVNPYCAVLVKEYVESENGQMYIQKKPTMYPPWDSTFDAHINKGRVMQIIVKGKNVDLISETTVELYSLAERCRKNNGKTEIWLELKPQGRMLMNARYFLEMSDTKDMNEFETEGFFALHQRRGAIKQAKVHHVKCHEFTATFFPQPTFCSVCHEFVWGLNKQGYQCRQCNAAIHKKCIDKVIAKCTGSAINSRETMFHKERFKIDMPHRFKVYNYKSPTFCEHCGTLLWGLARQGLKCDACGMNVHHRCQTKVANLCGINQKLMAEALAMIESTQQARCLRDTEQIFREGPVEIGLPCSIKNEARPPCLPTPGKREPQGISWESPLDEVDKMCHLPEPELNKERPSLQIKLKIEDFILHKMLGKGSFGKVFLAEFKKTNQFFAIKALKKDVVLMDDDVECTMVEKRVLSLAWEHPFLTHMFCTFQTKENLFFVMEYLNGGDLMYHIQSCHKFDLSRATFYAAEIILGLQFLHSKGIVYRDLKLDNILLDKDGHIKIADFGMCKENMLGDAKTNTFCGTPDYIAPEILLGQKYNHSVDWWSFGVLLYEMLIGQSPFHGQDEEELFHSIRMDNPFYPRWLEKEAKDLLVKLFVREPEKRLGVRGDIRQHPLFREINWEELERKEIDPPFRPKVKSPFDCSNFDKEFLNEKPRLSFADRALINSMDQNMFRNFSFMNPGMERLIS

**Q.** Myc-tagged PKCθ was tested. Which “in vitro kinase assay: AhR Ser-36 phosphorylation” value did it give?
**A.** purified PKCθ indeed phosphorylated AhR at Ser-36

**Q.** Which “in vitro kinase assay: AhR Ser-36 phosphorylation” value does the source give for “Myc-tagged PKCθ kinase-dead (K409W) mutant” here?
**A.** purified kinase-dead (K409W) mutant of PKCθ did not
